Experimental data published in article PMC7039436.

Biological target: mono-ubiquitinated human FANCD2 (ubiquitin on Lysine 561) (human) (UniProt Q9BXW9)
Test: biotin affinity purification with 3C protease elution; in vitro ubiquitination reaction with Avi-ubiquitin loaded on avidin agarose, 2 hrs 4 °C, washed with 10 CV 50 mM Tris-HCl pH 7.4, 150 mM NaCl, 10% glycerol, 1 mM DTT; eluted overnight with 100 nM GST-HRV-3C; Coomassie gel

stoichiometry N: 1
Substance: mono-ubiquitinated human FANCI (ubiquitin on Lysine 523) (from UniProt Q9NVI1 1-1328; P0CG47 1-76) (natural protein)
